Test results reported in the supplement of paper PMC6755084.

Tested on: F1*sub RNA substrate (template-directed ligation)
Experiment: fraction ligated after 30 min (ligated reads / total reads); higher = more ligase activity; sequences stand for … in GAGACCGCAACTGAAAAGTTGT…AGTTCTGCACGTAGAAGCAAAAGGC
Conditions: 42 °C
How it was run: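 Oligo-pool templates underwent PCR amplification, T7 transcription and gel purification to yield ribozyme variants. Gel-separated ligated and unligated bands were converted to complementary DNA with barcoded primers and sequenced on a MiSeq, keeping core bases of quality ≥20. The ratio of ligated reads to total reads gave the fraction ligated for every variant.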

Sequence | fraction ligated
TTCACTGTCGTAAGACACTTGGATGGGTTGA [3d348] | 0.762
TATCACTTCGTAAGACACTTTGGATGGTTGA [3d1324] | 0.122
TATCACTTGTCGTAAGACCTTTGGATGGGTT [3d2205] | 0.744
TATCCTGTCGTAAGACACTTTGGATGGGTTGA [2d90] | 0.788
TATCATTGCGTAAGACACTTTGGAGGGTTGA [3d1168] | 0.0323
TACACTTGTCTAAGAACTTTGGATGGGTTGA [3d636] | 0.116
TACACTTGTCGTAAGACATTGGATGGGTTGA [3d707] | 0.239
ATCATTGTCGTAAGACACTTTGGATGGTTGA [3d102] | 0.482
TATCACTTTCTAAGACACTTTGGATGGGTTG [3d1492] | 0.785
TACACTTGTCGTAAGACATTTGGTGGGTTGA [3d709] | 0.0505
TATCACTTGCGTAAGACCTTTGGATGGTTGA [3d1671] | 0.176
ATCACTTGTCGTAAGAACTTTGGATGGGTTGA [2d15] | 0.821
TATCACTTGTCGTAAACACTTTGGTGGGTTGA [2d239] | 0.0914
TATCACTTGTCGAAGACCTTTGATGGGTTGA [3d1944] | 0.76
TTCATTGTCGTAAACACTTTGGATGGGTTGA [3d324] | 0.068
ATCACTGTCGTAAACACTTTGGATGGGTTGA [3d112] | 0.747
TTCACTGCGTAAGACACTTTGGATGGGTTGA [3d338] | 0.782
TATCACTTGTCTAAGACACTTTGGATGGTTA [3d1898] | 0.372
TATCATTGCGTAAACACTTTGGATGGGTTGA [3d1160] | 0.814
TATCATTGTCGTAAGACACTTGGATGGGTTA [3d1274] | 0.728
TATCACTTGTCGTAAGAACTTTGGAGGTTGA [3d2176] | 0.0186
ATCACTTGTCGTAAGACCTTTGGATGGGTTG [3d245] | 0.706
TAACTTGTCGTAAACACTTTGGATGGGTTGA [3d516] | 0.0735

Sequence | fraction ligated
TATCACTTGTCAAGACACTTTGGATGGGTTGA [2d194] | 0.809
TATACTTGTCTAAGACACTTTGGATGGGTTGA [2d75] | 0.797
TTCACTTGTCGTAAGACACTTTGGATGGGTT [3d506] | 0.0428
TATCACTTGCGAAGACACTTTGATGGGTTGA [3d1620] | 0.77
TTCACTTGCTAAGACACTTTGGATGGGTTGA [3d372] | 0.729
TTCCTTGTCGTAAGACACTTGGATGGGTTGA [3d310] | 0.776
TACACTTGTGTAAGACACTTTGGATGGGTTGA [2d53] | 0.243
ATCACTTGTCGTAAGACACTTTGGATGGTTA [3d273] | 0.68
TATCACTTGTCGTAAGAACTTTGATGGTTGA [3d2169] | 0.0458
TATCCTTGTCGTAAGACACTTTGGATGGTTG [3d1118] | 0.0169
TATCACTTGTCGTAAGAACTTTGGATGGGTTG [2d261] | 0.81
TATCACTGTCGTAAGACATTTGATGGGTTGA [3d1434] | 0.79
ATCATTGTCGAAGACACTTTGGATGGGTTGA [3d91] | 0.728
TTCACTTGTCGTAAACACTTGGATGGGTTGA [3d445] | 0.0492
TTCACGTCGTAAGACACTTTGGATGGGTTGA [3d336] | 0.658
TATCACTTTCGTAAGAATTTGGATGGGTTGA [3d1539] | 0.835
TATCACTTGGTAAGACACTTTGGATGGGTTGA [2d163] | 0.813
TATCCTTGTTAAGACACTTTGGATGGGTTGA [3d1000] | 0.793
TATACTTGTGTAAGACACTTTGGATGGGTTG [3d842] | 0.809
ATCACTTGTCGTAAGACCTTTGGAGGGTTGA [3d242] | 0.04
TTCACTTGTCGTAGACACTTTGGATGGTTGA [3d439] | 0.57
TATCACTTGTCTAAGACACTTTGGTGGGTTA [3d1893] | 0.104
TATCATTGTCGTAGACCTTTGGATGGGTTGA [3d1218] | 0.788
